Data as given in publication PMC10954734, “Structure of antiviral drug bulevirtide bound to hepatitis B and D virus receptor protein NTCP” (Nature Communications, 2024).

Biological target: T1, complex of detergent-solubilized, biotinylated NTCP and BLV (Homo sapiens NTCP; bulevirtide from …)
T1 construct: also called NTCP-BLV complex; source: BLV: provided peptide; not shown: Avi-tag, C-terminal, kept; eYFP, C-terminal, cleaved; rho-1D4, C-terminal, cleaved
Test: ELISA; multipoint ELISA at 4 C; 40 nM biotinylated NTCP immobilised on a neutravidin-coated plate in the presence of BLV, serial dilutions of purified Fab for 20 min, detection with HRP-conjugated protein L; EC50 from a sigmoidal dose-response fit; apparent
Conditions: both partners purified

B1: Fab3 (Fab, V domains shown)
VH: EVQLVESGGGLVQPGGSLRLSCAASGFNVSSSYIHWVRQAPGKGLEWVASISPYYSYTSYADSVKGRFTISADTSKNTAYLQMNSLRAEDTAVYYCARYQYDYYYSYYAGLDYWGQGTLVTVSS
VL: DIQMTQSPSSLSASVGDRVTITCRASQSVSSAVAWYQQKPGKAPKLLIYSASSLYSGVPSRFSGSRSGTDFTLTISSLQPEDFATYYCQQYRYSLITFGQGTKVEIK
notes: also called Fab specific to the NTCP-BLV complex
- Kd: 8 nM
